Source: patent US20050282743A1, “Molecular interactions in cells” (Arbor Vita Corporation, priority 2001, published 2005)
Values belong to the binder of their own block, whether it stands above or below them.

Tests used:
[1] = target: T1, GST-KIAA1526 PDZ domain 1 (Homo sapiens (Human)), Q9P202; experiment: G' assay; also: key of the grades not given here
T1 chain: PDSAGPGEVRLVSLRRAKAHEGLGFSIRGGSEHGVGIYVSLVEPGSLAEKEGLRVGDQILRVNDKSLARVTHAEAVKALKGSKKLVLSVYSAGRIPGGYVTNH

[2] = target: T2, GST-ZO-1 PDZ domain 1 (Rattus norvegicus (Rat)), A0A0G2; experiment: G' assay; also: key of the grades not given here
T2 chain: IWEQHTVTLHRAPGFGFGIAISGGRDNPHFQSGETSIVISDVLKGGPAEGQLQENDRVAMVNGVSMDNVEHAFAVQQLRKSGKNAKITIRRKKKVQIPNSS

[3] = target: T3, GST-ZO-1 PDZ domain 2 (Rattus norvegicus (Rat)), A0A0G2; experiment: G' assay; also: key of the grades not given here
T3 chain: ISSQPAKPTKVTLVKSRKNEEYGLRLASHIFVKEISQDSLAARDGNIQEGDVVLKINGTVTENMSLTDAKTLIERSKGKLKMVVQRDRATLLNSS

[4] = target: T4, GST-ZO-2 PDZ domain 2 (Homo sapiens (Human)), Q9UDY2; experiment: G' assay; also: key of the grades not given here
T4 chain: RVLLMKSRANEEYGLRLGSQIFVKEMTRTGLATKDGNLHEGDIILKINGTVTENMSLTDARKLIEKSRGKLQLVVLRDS

[5] = target: T5, GST-APXL-1 PDZ domain 1 (Homo sapiens (Human)), Q13796; experiment: G' assay; also: key of the grades not given here
T5 chain: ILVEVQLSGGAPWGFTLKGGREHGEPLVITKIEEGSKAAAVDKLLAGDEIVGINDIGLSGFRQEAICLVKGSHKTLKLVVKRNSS

[6] = target: T6, GST-KIAA0973 PDZ domain 1 (Homo sapiens (Human)), Q9Y2H9; experiment: G' assay; also: key of the grades not given here
T6 chain: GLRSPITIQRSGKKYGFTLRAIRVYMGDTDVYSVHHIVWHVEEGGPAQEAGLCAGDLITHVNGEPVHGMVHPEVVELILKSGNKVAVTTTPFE

[7] = target: GST-BAI-1 Associated Protein PDZ domain 6 (Homo sapiens (Human)), Q96QZ7; experiment: G' assay; also: key of the grades not given here
[8] = target: T7, GST-LIM Mystique PDZ domain 1 (Homo sapiens (Human)), Q96JY6; experiment: G' assay; also: key of the grades not given here
T7 chain: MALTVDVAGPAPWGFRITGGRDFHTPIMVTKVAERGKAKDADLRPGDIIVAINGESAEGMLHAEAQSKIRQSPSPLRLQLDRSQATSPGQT

[9] = target: GST-KIAA1634 PDZ domain 5 (Homo sapiens (Human)), Q5TCQ9; experiment: G' assay; also: key of the grades not given here
[10] = target: T8, GST-AIPC PDZ domain 1 (Homo sapiens (Human)), O15018; experiment: G' assay; also: key of the grades not given here
T8 chain: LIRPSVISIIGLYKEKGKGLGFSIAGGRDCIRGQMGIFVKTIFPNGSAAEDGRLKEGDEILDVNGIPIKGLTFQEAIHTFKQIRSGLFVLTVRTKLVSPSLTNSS

[11] = target: T9, GST-PTPL1 PDZ domain 2 (Homo sapiens (Human)), Q12923; experiment: G' assay; also: key of the grades not given here
T9 chain: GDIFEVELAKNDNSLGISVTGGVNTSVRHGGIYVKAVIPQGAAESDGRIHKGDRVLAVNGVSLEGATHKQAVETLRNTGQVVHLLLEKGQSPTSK

[12] = target: T10, GST-LIM-RIL PDZ domain 1 (Homo sapiens (Human)), P50479; experiment: G' assay; also: key of the grades not given here
T10 chain: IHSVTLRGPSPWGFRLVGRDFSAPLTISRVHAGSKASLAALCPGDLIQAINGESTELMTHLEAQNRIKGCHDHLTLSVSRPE

[13] = target: T11, GST-MUPP1 PDZ domain 13 (Homo sapiens (Human)), O75970; experiment: G' assay; also: key of the grades not given here
T11 chain: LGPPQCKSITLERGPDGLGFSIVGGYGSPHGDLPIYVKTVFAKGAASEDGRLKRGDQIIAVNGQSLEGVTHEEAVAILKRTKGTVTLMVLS

[14] = target: T12, GST-MUPP1 PDZ domain 7 (Homo sapiens (Human)), O75970; experiment: G' assay; also: key of the grades not given here
T12 chain: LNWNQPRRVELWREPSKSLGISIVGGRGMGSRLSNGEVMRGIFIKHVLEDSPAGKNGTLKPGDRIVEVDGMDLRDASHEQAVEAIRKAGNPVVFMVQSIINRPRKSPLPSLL

[15] = target: GST-PAR3 PDZ domain 3 (Homo sapiens (Human)), Q8TEW0; experiment: G' assay; also: key of the grades not given here
[16] = target: T13, GST-ENIGMA PDZ domain 1 (Homo sapiens (Human)), Q9NR12; experiment: G' assay; also: key of the grades not given here
T13 chain: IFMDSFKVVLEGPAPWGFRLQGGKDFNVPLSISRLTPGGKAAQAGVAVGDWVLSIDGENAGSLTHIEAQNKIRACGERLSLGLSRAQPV

[17] = target: T14, GST-novel PDZ gene PDZ domain 1 (Homo sapiens (Human)), Q9H5P4; experiment: G' assay; also: key of the grades not given here
T14 chain: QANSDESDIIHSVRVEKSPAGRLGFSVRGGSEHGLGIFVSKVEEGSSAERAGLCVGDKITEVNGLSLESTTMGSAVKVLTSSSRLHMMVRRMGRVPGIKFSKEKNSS

[18] = target: T15, GST-MUPP1 PDZ domain 9 (Homo sapiens (Human)), O75970; experiment: G' assay; also: key of the grades not given here
T15 chain: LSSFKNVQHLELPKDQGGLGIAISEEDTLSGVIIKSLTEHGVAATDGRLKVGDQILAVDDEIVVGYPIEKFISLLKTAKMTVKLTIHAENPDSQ

[19] = target: T16, GST-MINT1 PDZ domain 2 (Mus musculus (Mouse)), B2RUJ5; experiment: G' assay; also: key of the grades not given here
T16 chain: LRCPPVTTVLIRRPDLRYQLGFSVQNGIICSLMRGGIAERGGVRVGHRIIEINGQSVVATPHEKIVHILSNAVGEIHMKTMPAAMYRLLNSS

[20] = target: GST-KIAA807 [GST: P08515]; experiment: G' assay; also: key of the grades not given here
[21] = target: T17, GST-KIAA0807(S) PDZ domain 1 (Homo sapiens (Human)), Q6P0Q8; experiment: G' assay; also: key of the grades not given here
T17 chain: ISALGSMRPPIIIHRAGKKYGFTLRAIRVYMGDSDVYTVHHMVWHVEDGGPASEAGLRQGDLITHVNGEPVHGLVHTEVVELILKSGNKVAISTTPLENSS

[22] = target: T18, GST-KIAA0382 PDZ domain 1 (Canis lupus familiaris (Dog) (Canis familiaris)), A0A8I3; experiment: G' assay; also: key of the grades not given here
T18 chain: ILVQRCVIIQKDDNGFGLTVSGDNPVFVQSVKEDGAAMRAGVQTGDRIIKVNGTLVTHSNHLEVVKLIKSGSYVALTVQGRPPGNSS

[23] = target: T19, GST-Shank 1 PDZ domain 1 (Homo sapiens (Human)), Q9UPX8; experiment: G' assay; also: key of the grades not given here
T19 chain: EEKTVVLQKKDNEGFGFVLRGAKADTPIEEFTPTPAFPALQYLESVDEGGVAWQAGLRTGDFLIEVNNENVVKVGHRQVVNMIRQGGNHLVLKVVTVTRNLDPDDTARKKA

[24] = target: T20, GST-Outer Membrane PDZ domain 1 (Homo sapiens (Human)), P57105; experiment: G' assay; also: key of the grades not given here
T20 chain: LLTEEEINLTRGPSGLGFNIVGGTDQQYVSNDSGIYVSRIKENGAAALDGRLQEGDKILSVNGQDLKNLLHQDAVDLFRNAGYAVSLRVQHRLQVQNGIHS

[25] = target: T17, GST-KIAA0807(S) PDZ domain 1 (Homo …); experiment: G assay titration, PDZ 0.5 ug/ml

GST-KIAA807 [GST: P08515], sequence (P08515 whole entry, the tested form may be a part): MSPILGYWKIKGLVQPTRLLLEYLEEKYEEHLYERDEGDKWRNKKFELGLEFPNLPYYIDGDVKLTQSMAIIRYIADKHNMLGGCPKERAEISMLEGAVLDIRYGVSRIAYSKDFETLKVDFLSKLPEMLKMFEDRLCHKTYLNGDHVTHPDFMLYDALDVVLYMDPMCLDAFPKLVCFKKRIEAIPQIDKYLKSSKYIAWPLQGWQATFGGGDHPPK
GST-PAR3 PDZ domain 3 (Homo sapiens (Human)), Q8TEW0, sequence (Q8TEW0 579-681): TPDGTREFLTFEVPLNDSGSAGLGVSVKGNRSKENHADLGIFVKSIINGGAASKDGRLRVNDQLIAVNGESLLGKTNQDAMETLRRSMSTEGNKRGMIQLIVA
GST-KIAA1634 PDZ domain 5 (Homo sapiens (Human)), Q5TCQ9, sequence (Q5TCQ9 other isoform, or with tags, fused parts or gaps): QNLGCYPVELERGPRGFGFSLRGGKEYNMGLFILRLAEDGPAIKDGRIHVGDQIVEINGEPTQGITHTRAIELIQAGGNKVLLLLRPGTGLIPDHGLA
GST-BAI-1 Associated Protein PDZ domain 6 (Homo sapiens (Human)), Q96QZ7, sequence (Q96QZ7 1143-1233): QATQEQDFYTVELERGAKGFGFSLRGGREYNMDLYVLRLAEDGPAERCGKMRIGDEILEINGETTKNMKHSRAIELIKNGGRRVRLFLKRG

Classification [1]: 1 A450 class
Classification [2]: 1 A450 class
Classification [3]: 1 A450 class
Classification [4]: 1 A450 class
Binder: TEGNESSEATSPVNAIYSLA (modifications not checked) [neurofascin (chicken)]

Classification [5]: 2 A450 class
Classification [6]: 2 A450 class
Classification [1]: 1 A450 class
Classification [7]: 2 A450 class
Classification [8]: 2 A450 class
Classification [9]: 1 A450 class
Classification [10]: 1 A450 class
Classification [11]: 2 A450 class
Classification [12]: 2 A450 class
Classification [13]: 2 A450 class
Classification [14]: 1 A450 class
Classification [15]: 1 A450 class
Classification [16]: 1 A450 class
Classification [17]: 1 A450 class
Classification [18]: 1 A450 class
Classification [19]: 2 A450 class
Classification [20]: 5 A450 class
Classification [21]: 5 A450 class
Classification [22]: 2 A450 class
Classification [23]: 1 A450 class
Binder: VHDAESSDEDGYDWGPATDL (modifications not checked) [zona occludens 3 (ZO-3) PL peptide]

Classification [1]: 2 A450 class
Classification [24]: 2 A450 class
Classification [20]: 3 A450 class
Classification [21]: 4 A450 class
Kd [25]: 4 µM
Binder: QPTPTLGLNLGNDPDRGTSI (modifications not checked) [GluR delta-2]
